Reference: patent US12134634B2

Assays:
[1] = molecular target: NIR PKA biosensor (… SEQUENCE)
[2] = molecular target: miRFP670nano-DEVD-miRFP720 FRET-based reporter for caspase-3 activity (… SEQUENCE)
[3] = molecular target: NIR JNK biosensor (… SEQUENCE)

Substance: Protein Kinase A (PKA) (enzyme)
- FRET/miRFP670nano fluorescence ratio [1]: 33%

Substance: caspase-3 (from UniProt P42574) (enzyme)
- FRET/miRFP670nano fluorescence ratio detected at 725 nm/667 nm [2]: 1.65 fold

Substance: c-Jun N-terminal kinase (JNK) (enzyme)
- FRET/miRFP670nano fluorescence ratio [3]: 35%
